Values belong to the binder of their own block, whether it stands above or below them.
Key:
[1] = target: T1, ILT-2_6×His recombinant protein (human, UniProt Q8NHL6 24-458); assay: SPR, mAb captured on Protein-A, soluble ILT2 analyte
T1 construct: also called recombinant 6×HIS tagged ILT2; recombinant human ILT2 proteins
Protocol: Measurements were performed on a Biacore T200 apparatus (Biacore GE Healthcare) at 25° C. In all Biacore experiments HBS-EP+ (Biacore GE Healthcare) and NaOH 10 mM served as running buffer and regeneration buffer respectively. Sensorgrams were analyzed with Biacore T100 Evaluation software. Protein-A was purchased from (GE Healthcare). Human ILT2 recombinant proteins were cloned, produced and purified at Innate Pharma. Protein-A proteins were immobilized covalently to carboxyl groups in the dextran layer on a Sensor Chip CM5. The chip surface was activated with EDC/NHS (N-ethyl-N′-(3-dimethylaminopropyl) carbodiimidehydrochloride and N-hydroxysuccinimide (Biacore GE Healthcare)). Protein-A was diluted to 10 μg/ml in coupling buffer (10 mM acetate, pH 5.6) and injected until the appropriate immobilization level was reached (i.e. 2000 RU). Deactivation of the remaining activated groups was performed using 100 mM ethanolamine pH 8 (Biacore GE Healthcare). […] For blank subtraction, cycles were performed again replacing ILT2 proteins with running buffer. The monovalent affinity analysis was conducted following a regular Capture-Kinetic protocol as recommended by the manufacturer (Biacore GE Healthcare kinetic wizard). Seven serial dilutions of human ILT2 proteins, ranging from 6.25 to 400 nM were sequentially injected over the captured antibodies and allowed to dissociate for 10 min before regeneration. The entire sensorgram sets were fitted using the 1:1 kinetic binding model.

[2] = target: T2, Human ILT-2 (complete form) expressed at the cell surface (human, UniProt Q8NHL6 24-650); assay: flow cytometry titration on cells transfected with wild-type ILT2 (WT)
T2 construct: also called LILRB1; CHO-ILT2
T2 sequence (Q8NHL6 24-650): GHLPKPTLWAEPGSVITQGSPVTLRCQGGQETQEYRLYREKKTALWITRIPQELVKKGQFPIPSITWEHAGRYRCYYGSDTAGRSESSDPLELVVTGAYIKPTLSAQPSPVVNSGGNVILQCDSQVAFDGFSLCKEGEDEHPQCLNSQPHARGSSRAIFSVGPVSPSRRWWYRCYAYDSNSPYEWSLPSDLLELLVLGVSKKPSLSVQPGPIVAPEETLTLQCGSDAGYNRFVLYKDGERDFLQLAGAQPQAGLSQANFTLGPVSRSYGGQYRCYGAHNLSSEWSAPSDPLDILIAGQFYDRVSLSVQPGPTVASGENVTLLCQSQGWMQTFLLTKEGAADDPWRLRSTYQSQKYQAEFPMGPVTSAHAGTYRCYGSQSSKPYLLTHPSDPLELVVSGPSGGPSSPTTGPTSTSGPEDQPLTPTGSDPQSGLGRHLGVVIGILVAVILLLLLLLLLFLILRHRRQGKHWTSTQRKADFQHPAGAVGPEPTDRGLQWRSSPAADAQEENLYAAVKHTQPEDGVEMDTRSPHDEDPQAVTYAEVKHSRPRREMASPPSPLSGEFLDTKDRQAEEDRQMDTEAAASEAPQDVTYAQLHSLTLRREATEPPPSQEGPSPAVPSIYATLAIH

[3] = target: T3, ILT2 mutant 2 (human, UniProt Q8NHL6 24-650); assay: flow cytometry, HEK293T cells with ILT2 mutant
T3 construct: Transfected in HEK-293T cells; also called M2
T3 sequence (Q8NHL6 other isoform, or with tags, fused parts or gaps mutant): as the sequence (Q8NHL6 24-650) above, with E34A, R36A, Y76I, A82S, R84L counted along it

[4] = target: T4, ILT2 mutant 3 (human, UniProt Q8NHL6 24-650); assay: flow cytometry, HEK293T cells with ILT2 mutant
T4 construct: Transfected in HEK-293T cells
T4 sequence (Q8NHL6 other isoform, or with tags, fused parts or gaps mutant): as the sequence (Q8NHL6 24-650) above, with Y99A, I100S, V126S, A127S, D129A, N180R, S181A, E184G counted along it

[5] = target: T5, ILT2 mutant 3b (human, UniProt Q8NHL6 24-650); assay: flow cytometry, HEK293T cells with ILT2 mutant
T5 construct: Transfected in HEK-293T cells
T5 sequence (Q8NHL6 other isoform, or with tags, fused parts or gaps mutant): as the sequence (Q8NHL6 24-650) above, with Q18A, W67A, Y99A, I100S, V126S, S181A, E184G counted along it

[6] = target: T6, ILT2 mutant 4 (human, UniProt Q8NHL6 24-650); assay: flow cytometry, HEK293T cells with ILT2 mutant
T6 construct: Transfected in HEK-293T cells
T6 sequence (Q8NHL6 other isoform, or with tags, fused parts or gaps mutant): as the sequence (Q8NHL6 24-650) above, with S132A, L145S, N146A, Q148H, P149S counted along it

[7] = target: T7, ILT2 mutant 5 (human, UniProt Q8NHL6 24-650); assay: flow cytometry, HEK293T cells with ILT2 mutant
T7 construct: Transfected in HEK-293T cells
T7 sequence (Q8NHL6 other isoform, or with tags, fused parts or gaps mutant): as the sequence (Q8NHL6 24-650) above, with A127S, D129A, Q148H, R152A, N180R counted along it

[8] = target: T8, ILT2 mutant 6 (human, UniProt Q8NHL6 24-650); assay: flow cytometry, HEK293T cells with ILT2 mutant
T8 construct: Transfected in HEK-293T cells
T8 sequence (Q8NHL6 other isoform, or with tags, fused parts or gaps mutant): as the sequence (Q8NHL6 24-650) above, with Q107L, P108A, I119A, R156A counted along it

[9] = target: T9, ILT2 mutant 7 (human, UniProt Q8NHL6 24-650); assay: flow cytometry, HEK293T cells with ILT2 mutant
T9 construct: Transfected in HEK-293T cells
T9 sequence (Q8NHL6 other isoform, or with tags, fused parts or gaps mutant): as the sequence (Q8NHL6 24-650) above, with P166A, R169A, W171S, L191A, E193G, L195S, L197P counted along it

[10] = target: T10, ILT2 mutant 8 (human, UniProt Q8NHL6 24-650); assay: flow cytometry, HEK293T cells with ILT2 mutant
T10 construct: Transfected in HEK-293T cells
T10 sequence (Q8NHL6 other isoform, or with tags, fused parts or gaps mutant): as the sequence (Q8NHL6 24-650) above, with V111S, N113A, L195S, L197P counted along it

[11] = target: T11, ILT2 mutant 4-1 (human, UniProt Q8NHL6 24-650); assay: flow cytometry, HEK293T cells with ILT2 mutant
T11 construct: Transfected in HEK-293T cells
T11 sequence (Q8NHL6 other isoform, or with tags, fused parts or gaps mutant): as the sequence (Q8NHL6 24-650) above, with F299I, Y300R, D301A, W328G, Q378A, K381N counted along it

[12] = target: T12, ILT2 mutant 4-1b (human, UniProt Q8NHL6 24-650); assay: flow cytometry, HEK293T cells with ILT2 mutant
T12 construct: Transfected in HEK-293T cells
T12 sequence (Q8NHL6 other isoform, or with tags, fused parts or gaps mutant): as the sequence (Q8NHL6 24-650) above, with Y300R, D301A, R302A, S304F, H387A, D390A counted along it

[13] = target: T13, ILT2 mutant 4-2 (human, UniProt Q8NHL6 24-650); assay: flow cytometry, HEK293T cells with ILT2 mutant
T13 construct: Transfected in HEK-293T cells
T13 sequence (Q8NHL6 other isoform, or with tags, fused parts or gaps mutant): as the sequence (Q8NHL6 24-650) above, with W328G, Q330H, R347A, T349A, Y350S, Y355A counted along it

[14] = target: T14, ILT2 mutant 4-3 (human, UniProt Q8NHL6 24-650); assay: flow cytometry, HEK293T cells with ILT2 mutant
T14 construct: Transfected in HEK-293T cells
T14 sequence (Q8NHL6 other isoform, or with tags, fused parts or gaps mutant): as the sequence (Q8NHL6 24-650) above, with Q324A, Q326S, S352A, Q353H, K354A counted along it

[15] = target: T15, ILT2 mutant 4-4 (human, UniProt Q8NHL6 24-650); assay: flow cytometry, HEK293T cells with ILT2 mutant
T15 construct: Transfected in HEK-293T cells
T15 sequence (Q8NHL6 other isoform, or with tags, fused parts or gaps mutant): as the sequence (Q8NHL6 24-650) above, with Q308A, P309G, N318A, T320A, E358S, G362S counted along it

[16] = target: T16, ILT2 mutant 4-5 (human, UniProt Q8NHL6 24-650); assay: flow cytometry, HEK293T cells with ILT2 mutant
T16 construct: Transfected in HEK-293T cells
T16 sequence (Q8NHL6 other isoform, or with tags, fused parts or gaps mutant): as the sequence (Q8NHL6 24-650) above, with D341A, D342S, W344L, R345A, R347A counted along it

T1 sequence (Q8NHL6 other isoform, or with tags, fused parts or gaps limits assumed): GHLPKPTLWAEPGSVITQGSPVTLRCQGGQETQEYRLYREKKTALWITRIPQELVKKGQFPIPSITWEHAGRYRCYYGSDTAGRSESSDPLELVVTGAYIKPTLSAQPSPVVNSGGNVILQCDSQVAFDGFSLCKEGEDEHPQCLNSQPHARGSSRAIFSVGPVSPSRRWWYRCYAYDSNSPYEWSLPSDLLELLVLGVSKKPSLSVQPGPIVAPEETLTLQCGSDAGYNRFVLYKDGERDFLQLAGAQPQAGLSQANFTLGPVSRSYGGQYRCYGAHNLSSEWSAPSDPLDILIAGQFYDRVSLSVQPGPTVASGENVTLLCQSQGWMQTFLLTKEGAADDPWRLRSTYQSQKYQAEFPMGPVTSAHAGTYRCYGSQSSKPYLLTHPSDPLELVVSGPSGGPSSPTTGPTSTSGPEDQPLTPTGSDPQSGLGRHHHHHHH

- kon [1]: 280000 M⁻¹ s⁻¹
- EC50 (read off the curve) [2]: ~1 µg/mL
B1: 3H5 (antibody, human IgG1, V domains shown)
VH: QVQLKESGPGLVAPSQSLSITCTVSGFSLTSYGVSWVRQPPGKGLEWLGVIWGDGSTNYHSALISRLSISKDNSKSQVFLKLNSLQTDDTATYYCAKPRWDDYAMDYWGQGTSVTVSS
VL: DIQMTQTTSSLSASLGDRVTISCRASQDISNYLNWYQQKPDGTVKLLIYYTSRLHSGVPSRFSGSGSGTDYSLTISNLEQEDIATYFCQQGNTLWTFGGGTKLEIK

- binding result [3]: no binding
B2: 2H2A (antibody, V domains shown)
VH: EVKLEESGPELVKPGASVKLSCKASGYTFTNYYMQWVKQRPGQGLEWIGWIFPGSGESSYNEKFKGKATLSADTSSTTAYMQLSSLTSEDSAVYFCARTWNYDARWGYWGQGTTLTVSS
VL: DILMTQSPASLAVSLGQRATISCIPSESIDSYGISFMHWYQQKPGQPPKLLIYRASNLESGIPARFSGSGSRTDFTLTINPVEADDVATYYCQQSNEDPFTFGSGTKLELK

- binding result [4]: binds
- binding result [5]: binds
- binding result [6]: binds
- binding result [7]: binds
- binding result [8]: binds
- binding result [9]: binds
- binding result [10]: binds
- binding result [11]: binds
- binding result [12]: binds
- binding result [13]: binds
- binding result [14]: binds
- binding result [15]: binds
- binding result [16]: binds
B3: 12D12 (antibody, human IgG1, V domains shown)
VH: QVQLQQPGAELVKPGASVRMSCKASGYTFTSYWVHWVKQRPGQGLEWIGVIDPSDSYTSYNQNFKGKATLTVDTSSKTAYIHLSSLTSEDSAVYFCARGERYDGDYFAMDYWGQGTSVTVSS
VL: DIVMTQSPASLSVSVGETVTITCRASENIYSNLAWYQQKQGKSPQLLVYAATNLADGVPSRFSGSRSGTQYSLKINSLQSEDFGTYYCQHFWNTPRTFGGGTKLEIK
notes: also called 12012

- kon [1]: 660000 M⁻¹ s⁻¹
B4: 27H5 (antibody, human IgG1, V domains shown)
VH: QVQLKESGPGLVAPSQSLSITCTVSGFSLTSYGVSWVRQPPGKGLEWLGVIWGDGNTNYHSALISRLSISKDNSKSQVFLKLNSLQTDDTATYYCARTNWDGWFAYWGQGTLVTVSA
VL: DIVMTQSHKFMSTSVGDRVSITCKASQDVGTAVAWYQQKPGQSPKLLIYWASTRHTGVPDRFTGSGSGTDFTLTISNVQSEDLADYFCQQYRSYPLGTFGGGTKLEIK

- kon [1]: 750000 M⁻¹ s⁻¹
B5: 18E1 (antibody, human IgG1, V domains shown)
VH: QVQLQQSGAELVKPGASVRLSCKASGYTFTAHTIHWVKQRSGQGLEWIGWLYPGSGSIKYNEKFKDKATLTADKSSSTVYMELSRLTSEDSAVYFCARHTNWDFDYWGQGTTLTVSS
VL: NIVLTQSPASLAVSLGQRATISCKASQSVDYGGASYMNWYQQKPGQPPKLLIYAASNLESGIPARFSGSGSGTDLTLNIHPVEEEDAAMYYCQQSNEEPWTFGGGTKLEIK

— patent US20240294634A1 (INNATE PHARMA, published 2024)
